Results from IntAct's records for PubMed 38225382.

B1: Peroxisomal biogenesis factor 19 (Homo sapiens), P40855 (parent)
chain: MAAAEEGCSVGAEADRELEELLESALDDFDKAKPSPAPPSTTTAPDASGPQKRSPGDTAKDALFASQEKFFQELFDSELASQATAEFEKAMKELAEEEPHLVEQFQKLSEAAGRVGSDMTSQQEFTSCLKETLSGLAKNATDLQNSSMSEEELTKAMEGLGMDEGDGEGNILPIMQSIMQNLLSKDVLYPSLKEITEKYPEWLQSHRESLPPEQFEKYQEQHSVMCKICEQFEAETPTDSETTQKARFEMVLDLMQQLQDLGHPPKELAGEMPPGLNFDLDALNLSGPPGASGEQCLIM
B2: CREB/ATF bZIP transcription factor (Homo sapiens), Q9NS37 (parent)
chain: MRHSLTKLLAASGSNSPTRSESPEPAATCSLPSDLTRAAAGEEETAAAGSPGRKQQFGDEGELEAGRGSRGGVAVRAPSPEEMEEEAIASLPGEETEDMDFLSGLELADLLDPRQPDWHLDPGLSSPGPLSSSGGGSDSGGLWRGDDDDEAAAAEMQRFSDLLQRLLNGIGGCSSSSDSGSAEKRRRKSPGGGGGGGSGNDNNQAATKSPRKAAAAAARLNRLKKKEYVMGLESRVRGLAAENQELRAENRELGKRVQALQEESRYLRAVLANETGLARLLSRLSGVGLRLTTSLFRDSPAGDHDYALPVGKQKQDLLEEDDSAGGVCLHVDKDKVSVEFCSACARKASSSLKM
partner: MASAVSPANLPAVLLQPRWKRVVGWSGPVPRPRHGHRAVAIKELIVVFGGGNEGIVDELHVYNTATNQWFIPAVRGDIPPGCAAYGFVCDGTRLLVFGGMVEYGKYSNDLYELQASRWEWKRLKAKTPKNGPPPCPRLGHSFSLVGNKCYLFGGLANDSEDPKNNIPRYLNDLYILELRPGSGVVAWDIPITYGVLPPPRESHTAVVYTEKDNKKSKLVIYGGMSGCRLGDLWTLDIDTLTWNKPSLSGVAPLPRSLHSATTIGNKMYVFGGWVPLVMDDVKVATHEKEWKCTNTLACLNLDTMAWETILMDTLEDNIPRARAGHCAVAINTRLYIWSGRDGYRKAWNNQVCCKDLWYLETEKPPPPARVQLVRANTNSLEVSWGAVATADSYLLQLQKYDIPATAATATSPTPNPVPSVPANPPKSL
B3: Estrogen-related receptor gamma (Homo sapiens), P62508-3 (parent)
chain: MSNKDRHIDSSCSSFIKTEPSSPASLTDSVNHHSPGGSSDASGSYSSTMNGHQNGLDSPPLYPSAPILGGSGPVRKLYDDCSSTIVEDPQTKCEYMLNSMPKRLCLVCGDIASGYHYGVASCEACKAFFKRTIQGNIEYSCPATNECEITKRRRKSCQACRFMKCLKVGMLKEGVRLDRVRGGRQKYKRRIDAENSPYLNPQLVQPAKKPLLWSDPADNKIVSHLLVAEPEKIYAMPDPTVPDSDIKALTTLCDLADRELVVIIGWAKHIPGFSTLSLADQMSLLQSAWMEILILGVVYRSLSFEDELVYADDYIMDEDQSKLAGLLDLNNAILQLVKKYKSMKLEKEEFVTLKAIALANSDSMHIEDVEAVQKLQDVLHEALQDYEAGQHMEDPRRAGKMLMTLPLLRQTSTKAVQHFYNIKLEGKVPMHKLFLEMLEAKV
B4: Peroxisomal biogenesis factor 3 (Homo sapiens), P56589 (parent)
chain: MLRSVWNFLKRHKKKCIFLGTVLGGVYILGKYGQKKIREIQEREAAEYIAQARRQYHFESNQRTCNMTVLSMLPTLREALMQQLNSESLTALLKNRPSNKLEIWEDLKIISFTRSTVAVYSTCMLVVLLRVQLNIIGGYIYLDNAAVGKNGTTILAPPDVQQQYLSSIQHLLGDGLTELITVIKQAVQKVLGSVSLKHSLSLLDLEQKLKEIRNLVEQHKSSSWINKDGSKPLLCHYMMPDEETPLAVQACGLSPRDITTIKLLNETRDMLESPDFSTVLNTCLNRGFSRLLDNMAEFFRPTEQDLQHGNSMNSLSSVSLPLAKIIPIVNGQIHSVCSETPSHFVQDLLTMEQVKDFAANVYEAFSTPQQLEK
B5: Peroxisomal biogenesis factor 3 (Homo sapiens), P56589 (parent)
chain: B4 chain
partner: B1 chain
B6: F-box only protein 28 (Homo sapiens), Q9NVF7 (parent)
chain: MAAAAEERMAEEGGGGQGDGGSSLASGSTQRQPPPPAPQHPQPGSQALPAPALAPDQLPQNNTLVALPIVAIENILSFMSYDEISQLRLVCKRMDLVCQRMLNQGFLKVERYHNLCQKQVKAQLPRRESERRNHSLARHADILAAVETRLSLLNMTFMKYVDSNLCCFIPGKVIDEIYRVLRYVNSTRAPQRAHEVLQELRDISSMAMEYFDEKIVPILKRKLPGSDVSGRLMGSPPVPGPSAALTTMQLFSKQNPSRQEVTKLQQQVKTNGAGVTVLRREISELRTKVQEQQKQLQDQDQKLLEQTQIIGEQNARLAELERKLREVMESAVGNSSGSGQNEESPRKRKKATEAIDSLRKSKRLRNRK
B7: Host cell factor 1 (Homo sapiens), P51610-3 (parent)
chain: B2 partner
partner: B2 chain
B8: E3 ubiquitin-protein ligase TRIM37 (Homo sapiens), O94972 (parent)
chain: MDEQSVESIAEVFRCFICMEKLRDARLCPHCSKLCCFSCIRRWLTEQRAQCPHCRAPLQLRELVNCRWAEEVTQQLDTLQLCSLTKHEENEKDKCENHHEKLSVFCWTCKKCICHQCALWGGMHGGHTFKPLAEIYEQHVTKVNEEVAKLRRRLMELISLVQEVERNVEAVRNAKDERVREIRNAVEMMIARLDTQLKNKLITLMGQKTSLTQETELLESLLQEVEHQLRSCSKSELISKSSEILMMFQQVHRKPMASFVTTPVPPDFTSELVPSYDSATFVLENFSTLRQRADPVYSPPLQVSGLCWRLKVYPDGNGVVRGYYLSVFLELSAGLPETSKYEYRVEMVHQSCNDPTKNIIREFASDFEVGECWGYNRFFRLDLLANEGYLNPQNDTVILRFQVRSPTFFQKSRDQHWYITQLEAAQTSYIQQINNLKERLTIELSRTQKSRDLSPPDNHLSPQNDDALETRAKKSACSDMLLEGGPTTASVREAKEDEEDEEKIQNEDYHHELSDGDLDLDLVYEDEVNQLDGSSSSASSTATSNTEENDIDEETMSGENDVEYNNMELEEGELMEDAAAAGPAGSSHGYVGSSSRISRRTHLCSAATSSLLDIDPLILIHLLDLKDRSSIENLWGLQPRPPASLLQPTASYSRKDKDQRKQQAMWRVPSDLKMLKRLKTQMAEVRCMKTDVKNTLSEIKSSSAASGDMQTSLFSADQAALAACGTENSGRLQDLGMELLAKSSVANCYIRNSTNKKSNSPKPARSSVAGSLSLRRAVDPGENSRSKGDCQTLSEGSPGSSQSGSRHSSPRALIHGSIGDILPKTEDRQCKALDSDAVVVAVFSGLPAVEKRRKMVTLGANAKGGHLEGLQMTDLENNSETGELQPVLPEGASAAPEEGMSSDSDIECDTENEEQEEHTSVGGFHDSFMVMTQPPDEDTHSSFPDGEQIGPEDLSFNTDENSGR
B9: GRB10-interacting GYF protein 1 (Homo sapiens), O75420 (parent)
chain: MAAETLNFGPEWLRALSGGGSVASPPPSPAMPKYKLADYRYGREEMLALYVKENKVPEELQDKEFAAVLQDEPLQPLALEPLTEEEQRNFSLSVNSVAVLRLMGKGAGPPLAGTSRGRGSTRSRGRGRGDSCFYQRSIEEGDGAFGRSPREIQRSQSWDDRGERRFEKSARRDGARCGFEEGGAGPRKEHARSDSENWRSLREEQEEEEEGSWRLGAGPRRDGDRWRSASPDGGPRSAGWREHGERRRKFEFDLRGDRGGCGEEEGRGGGGSSHLRRCRAPEGFEEDKDGLPEWCLDDEDEEMGTFDASGAFLPLKKGPKEPIPEEQELDFQGLEEEEEPSEGLEEEGPEAGGKELTPLPPQEEKSSSPSPLPTLGPLWGTNGDGDETAEKEPPAAEDDIRGIQLSPGVGSSAGPPGDLEDDEGLKHLQQEAEKLVASLQDSSLEEEQFTAAMQTQGLRHSAAATALPLSHGAARKWFYKDPQGEIQGPFTTQEMAEWFQAGYFSMSLLVKRGCDEGFQPLGEVIKMWGRVPFAPGPSPPPLLGNMDQERLKKQQELAAAALYQQLQHQQFLQLVSSRQLPQCALREKAALGDLTPPPPPPPQQQQQQLTAFLQQLQALKPPRGGDQNLLPTMSRSLSVPDSGRLWDVHTSASSQSGGEASLWDIPINSSTQGPILEQLQLQHKFQERREVELRAKREEEERKRREEKRRQQQQEEQKRRQEEEELFRRKHVRQQELLLKLLQQQQAVPVPPAPSSPPPLWAGLAKQGLSMKTLLELQLEGERQLHKQPPPREPARAQAPNHRVQLGGLGTAPLNQWVSEAGPLWGGPDKSGGGSSGLGLWEDTPKSGGSLVRGLGLKNSRSSPSLSDSYSHLSGRPIRKKTEEEEKLLKLLQGIPRPQDGFTQWCEQMLHTLSATGSLDVPMAVAILKEVESPYDVHDYIRSCLGDTLEAKEFAKQFLERRAKQKASQQRQQQQEAWLSSASLQTAFQANHSTKLGPGEGSKAKRRALMLHSDPSILGYSLHGSSGEIESVDDY

Variants of: B1
Settings: with pex3_human PEX3, P56589

Question: With F29K as the variant, how does the “effect of a mutation on the interaction” value read?
Answer: decreasing interaction strength

Variants of: B2
Settings: with HCFC1, P51610-3

Question: For Y306A, which “effect of a mutation on the interaction” value is on record?
Answer: decreasing interaction strength

Variants of: B3
Settings: with prs8_human PSMC5, P62195
Chain of prs8_human PSMC5, P62195 (P62195 whole entry): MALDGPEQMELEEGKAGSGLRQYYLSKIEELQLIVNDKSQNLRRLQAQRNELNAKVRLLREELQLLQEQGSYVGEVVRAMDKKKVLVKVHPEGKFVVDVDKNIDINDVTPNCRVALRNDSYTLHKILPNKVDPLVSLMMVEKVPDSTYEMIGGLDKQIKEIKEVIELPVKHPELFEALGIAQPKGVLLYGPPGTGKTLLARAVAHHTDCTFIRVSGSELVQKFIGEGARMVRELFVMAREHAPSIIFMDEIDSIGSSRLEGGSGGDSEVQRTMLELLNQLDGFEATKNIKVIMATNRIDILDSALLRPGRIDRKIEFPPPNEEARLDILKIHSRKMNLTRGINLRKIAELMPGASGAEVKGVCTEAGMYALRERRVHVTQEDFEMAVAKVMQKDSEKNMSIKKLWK

Question: For M437F, which “effect of a mutation on the interaction” value is on record?
Answer: decreasing interaction strength

Question: With I264E as the variant, how does the “effect of a mutation on the interaction” value read?
Answer: decreasing interaction strength

Variants of: B4
Settings: with pex16_human PEX16, Q9Y5Y5
Chain of pex16_human PEX16, Q9Y5Y5 (Q9Y5Y5 whole entry): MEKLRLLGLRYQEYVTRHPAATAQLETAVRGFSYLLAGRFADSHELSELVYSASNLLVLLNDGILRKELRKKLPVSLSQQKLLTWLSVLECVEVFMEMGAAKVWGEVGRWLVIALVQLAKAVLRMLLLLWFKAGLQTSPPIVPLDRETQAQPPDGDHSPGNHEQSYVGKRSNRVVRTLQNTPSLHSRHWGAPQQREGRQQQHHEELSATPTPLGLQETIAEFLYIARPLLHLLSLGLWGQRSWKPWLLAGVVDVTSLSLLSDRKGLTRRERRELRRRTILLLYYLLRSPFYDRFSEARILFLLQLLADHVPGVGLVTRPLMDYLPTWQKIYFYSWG

Question: R54S was tested. Which “effect of a mutation on the interaction” value did it give?
Answer: decreasing interaction strength

Question: How did the “effect of a mutation on the interaction” value turn out when E272R was run?
Answer: decreasing interaction strength

Variants of: B5
Settings: with pex19_human PEX19, P40855

Question: Which “effect of a mutation on the interaction” value does the source give for E272R here?
Answer: with no effect

Question: For T90Q, which “effect of a mutation on the interaction” value is on record?
Answer: with no effect

Question: Which “effect of a mutation on the interaction” value does the source give for R54S here?
Answer: with no effect

Variants of: B6
Settings: with stx1b_human STX1B

Question: With R348L as the variant, how does the “effect of a mutation on the interaction” value read?
Answer: increasing interaction strength

Question: Which “effect of a mutation on the interaction” value does the source give for L152E here?
Answer: decreasing interaction strength

Question: I355R was tested. Which “effect of a mutation on the interaction” value did it give?
Answer: with no effect

Variants of: B7
Settings: with zhang_human CREBZF

Question: For L138F, which “effect of a mutation on the interaction” value is on record?
Answer: decreasing interaction strength

Question: S225N was tested. Which “effect of a mutation on the interaction” value did it give?
Answer: with no effect

Question: How did the “effect of a mutation on the interaction” value turn out when L257F was run?
Answer: decreasing interaction strength

Variants of: B8
Settings: with pnkp_human PNKP

Question: Which “effect of a mutation on the interaction” value does the source give for N376R here?
Answer: with no effect

Question: F328R was tested. Which “effect of a mutation on the interaction” value did it give?
Answer: with no effect

Variants of: B9
Settings: with SNRPB

Question: W498E was tested. Which “effect of a mutation on the interaction” value did it give?
Answer: decreasing interaction strength

Question: L508F was tested. Which “effect of a mutation on the interaction” value did it give?
Answer: with no effect
